Reference: IntAct's records for PubMed 23644599

B1: mRNA decay activator protein ZFP36 (Homo sapiens), P26651 (parent)
chain: MDLTAIYESLLSLSPDVPVPSDHGGTESSPGWGSSGPWSLSPSDSSPSGVTSRLPGRSTSLVEGRSCGWVPPPPGFAPLAPRLGPELSPSPTSPTATSTTPSRYKTELCRTFSESGRCRYGAKCQFAHGLGELRQANRHPKYKTELCHKFYLQGRCPYGSRCHFIHNPSEDLAAPGHPPVLRQSISFSGLPSGRRTSPPPPGLAGPSLSSSSFSPSSSPPPPGDLPLSPSAFSAAPGTPLARRDPTPVCCPSCRRATPISVWGPLGGLVRTPSVQSLGSDPDEYASSGSSLGGSDSPVFEAGVFAPPQPVAAPRRLPIFNRISVSE

Variants of: B1
Conditions: with CNOT1, A5YKK6-2
Chain of CNOT1, A5YKK6-2 (A5YKK6 other isoform, or with tags, fused parts or gaps): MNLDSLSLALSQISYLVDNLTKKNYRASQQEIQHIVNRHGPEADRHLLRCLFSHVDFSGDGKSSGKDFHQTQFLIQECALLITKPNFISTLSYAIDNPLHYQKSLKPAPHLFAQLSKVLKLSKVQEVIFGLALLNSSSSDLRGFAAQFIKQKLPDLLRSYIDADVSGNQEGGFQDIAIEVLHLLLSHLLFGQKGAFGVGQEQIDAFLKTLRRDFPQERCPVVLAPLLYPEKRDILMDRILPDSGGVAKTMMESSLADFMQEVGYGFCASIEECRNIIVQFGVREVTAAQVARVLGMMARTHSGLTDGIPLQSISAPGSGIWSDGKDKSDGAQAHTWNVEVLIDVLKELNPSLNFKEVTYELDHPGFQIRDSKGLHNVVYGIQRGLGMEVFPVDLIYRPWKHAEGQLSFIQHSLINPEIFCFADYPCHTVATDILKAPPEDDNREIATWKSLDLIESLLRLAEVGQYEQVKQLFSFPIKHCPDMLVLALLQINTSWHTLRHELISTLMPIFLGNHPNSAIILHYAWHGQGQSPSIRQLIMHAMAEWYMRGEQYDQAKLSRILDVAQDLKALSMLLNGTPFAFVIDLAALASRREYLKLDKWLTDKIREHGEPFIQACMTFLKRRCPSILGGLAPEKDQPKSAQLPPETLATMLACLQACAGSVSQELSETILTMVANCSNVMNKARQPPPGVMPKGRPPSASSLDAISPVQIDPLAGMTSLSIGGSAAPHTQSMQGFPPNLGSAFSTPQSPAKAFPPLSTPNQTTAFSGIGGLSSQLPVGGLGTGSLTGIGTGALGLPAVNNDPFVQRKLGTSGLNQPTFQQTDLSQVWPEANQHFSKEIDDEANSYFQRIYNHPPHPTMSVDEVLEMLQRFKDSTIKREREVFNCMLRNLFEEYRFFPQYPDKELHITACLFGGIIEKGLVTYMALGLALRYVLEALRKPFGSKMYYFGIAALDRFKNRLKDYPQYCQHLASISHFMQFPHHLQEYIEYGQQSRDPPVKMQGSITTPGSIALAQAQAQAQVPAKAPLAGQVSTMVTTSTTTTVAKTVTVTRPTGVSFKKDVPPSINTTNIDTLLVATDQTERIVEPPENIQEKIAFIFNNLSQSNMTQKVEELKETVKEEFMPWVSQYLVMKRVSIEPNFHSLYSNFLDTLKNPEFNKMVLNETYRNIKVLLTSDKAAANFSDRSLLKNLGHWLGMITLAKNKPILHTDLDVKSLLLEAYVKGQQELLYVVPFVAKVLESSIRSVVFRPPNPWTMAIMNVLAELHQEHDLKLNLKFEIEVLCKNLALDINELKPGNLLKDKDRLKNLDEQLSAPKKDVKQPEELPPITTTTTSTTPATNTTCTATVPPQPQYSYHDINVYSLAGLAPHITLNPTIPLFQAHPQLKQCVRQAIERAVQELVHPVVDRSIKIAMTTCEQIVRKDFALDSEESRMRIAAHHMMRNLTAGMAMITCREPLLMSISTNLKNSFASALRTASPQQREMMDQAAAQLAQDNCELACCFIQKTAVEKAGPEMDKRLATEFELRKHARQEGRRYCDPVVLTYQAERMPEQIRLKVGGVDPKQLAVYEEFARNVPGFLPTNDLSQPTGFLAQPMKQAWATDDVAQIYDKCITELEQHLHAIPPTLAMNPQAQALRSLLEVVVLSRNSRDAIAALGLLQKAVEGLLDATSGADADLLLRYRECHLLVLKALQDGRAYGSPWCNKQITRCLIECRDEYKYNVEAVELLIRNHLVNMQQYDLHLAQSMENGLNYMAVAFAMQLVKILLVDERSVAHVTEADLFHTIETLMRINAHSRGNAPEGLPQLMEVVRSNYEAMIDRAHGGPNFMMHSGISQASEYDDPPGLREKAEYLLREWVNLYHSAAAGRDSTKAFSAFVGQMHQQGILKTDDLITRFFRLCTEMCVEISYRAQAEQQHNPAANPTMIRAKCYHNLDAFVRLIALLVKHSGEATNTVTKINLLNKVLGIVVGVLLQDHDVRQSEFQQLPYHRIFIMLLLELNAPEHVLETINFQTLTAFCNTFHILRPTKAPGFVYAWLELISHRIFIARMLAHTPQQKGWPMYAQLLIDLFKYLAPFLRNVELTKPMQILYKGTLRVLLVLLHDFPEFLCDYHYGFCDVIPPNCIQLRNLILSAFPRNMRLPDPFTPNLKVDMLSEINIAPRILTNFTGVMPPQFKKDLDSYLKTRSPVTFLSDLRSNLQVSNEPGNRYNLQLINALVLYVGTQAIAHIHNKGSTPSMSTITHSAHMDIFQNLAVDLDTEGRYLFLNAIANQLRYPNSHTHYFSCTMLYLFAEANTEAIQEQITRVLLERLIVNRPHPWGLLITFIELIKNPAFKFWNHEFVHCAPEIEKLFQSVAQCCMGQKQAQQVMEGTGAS

Row | Variant | effect of a mutation on the interaction
1 | F319A | disrupting interaction strength

Variants of: B1
Conditions: with CNOT1, A5YKK6-2
Remark: another data set of the same source

Row | Variant | effect of a mutation on the interaction
2 | R315A | disrupting interaction strength
